B1: human type 1 prolyl 4-hydroxylase tetramer (α12β2) (Homo sapiens) (protein)
chain: HPGFFTSIGQMTDLIHTEKDLVTSLKDYIKAEEDKLEQIKKWAEKLDRLTSTATKDPEGFVGHPVNAFKLMKRLNTEWSELENLVLKDMSDGFISNLTIQRQYFPNDEDQVGAAKALLRLQDTYNLDTDTISKGNLPGVKHKSFLTAEDCFELGKVAYTEADYYHTELWMEQALRQLDEGEISTIDKVSVLDYLSYAVYQQGDLDKALLLTKKLLELDPEHQRANGNLKYFEYIMAKEKDVNKSASDDQSDQKTTPKKKGVAVDYLPERQKYEMLCRGEGIKMTPRRQKKLFCRYHDGNRNPKFILAPAKQEDEWDKPRIIRFHDIISDAEIEIVKDLAKPRLRRATISNPITGDLETVHYRISKSAWLSGYENPVVSRINMRIQDLTGLDVSTAEELQVANYGVGGQYEPHFDFARKDEPDAFKELGTGNRIATWLFYMSDVSAGGATVFPEVGASVWPKKGTAVFWYNLFASGEGDYSTRHAACPVLVGNKWVSNKWLHERGQEFRRPCTLSELE
notes: made in house; host or cells: Spodoptera frugiperda Sf9 insect cells (baculovirus co-infection); 0.1% Triton X-100 extract
B2: mouse/human type 2 prolyl 4-hydroxylase tetramer (α22β2) (Mus musculus) (protein)
chain: WVQAEFFTSIGHMTDLIYAEKDLVQSLKEYILVEEAKLAKIKSWASKMEALTSRSAADPEGYLAHPVNAYKLVKRLNTDWPALGDLVLQDASAGFVANLSVQRQFFPTDEDESGAARALMRLQDTYKLDPDTISRGELPGTKYQAMLSVDDCFGLGRSAYNEGDYYHTVLWMEQVLKQLDAGEEATVTKSLVLDYLSYAVFQLGDLHRAVELTRRLLSLDPSHERAGGNLRYFERLLEEERGKSLSNQTDAGLATQENLYERPTDYLPERDVYESLCRGEGVKLTPRRQKKLFCRYHHGNRVPQLLIAPFKEEDEWDSPHIVRYYDVMSDEEIERIKEIAKPKLARATVRDPKTGVLTVASYRVSKSSWLEEDDDPVVARVNRRMQHITGLTVKTAELLQVANYGMGGQYEPHFDFSRSDDEDAFKRLGTGNRVATFLNYMSDVEAGGATVFPDLGAAIWPKKGTAVFWYNLLRSGEGDYRTRHAACPVLVGCKWVSNKWFHERGQEFLRPCGTTEVD
notes: the cDNA clones, considered in combination, cover the whole coding region of the mouse α2 subunit; made in house; host or cells: Spodoptera frugiperda Sf9 insect cells (baculovirus pVL1392 construct, co-infection with PDI/β virus); 0.1% Triton X-100 extract

Columns and labels:
[1] = substrate: O=C1O[C@H]([C@@H](O)CO)C(O)=C1O; experiment: Prolyl 4-hydroxylase activity assay (decarboxylation of 2-oxo[1-14C]glutarate), type 1 enzyme; format: biochemical, human; settings: other: α12β2, recombinant enzyme from insect cells, 0.1% Triton X-100 extract; pH 7.8
[2] = substrate: O=C1O[C@H]([C@@H](O)CO)C(O)=C1O; experiment: Prolyl 4-hydroxylase activity assay (decarboxylation of 2-oxo[1-14C]glutarate), type 2 enzyme; format: biochemical; settings: other: α22β2 (mouse α2, human PDI/β), recombinant enzyme from insect cells; pH 7.8

Protein | Km [1] [µM] | Km [2] [µM]
B1 | 330 | –
B2 | – | 340
